Biological target: CpG-ST-E2 nanoparticle (ST-E2 with CpG 1826 conjugated in the internal cavity) (Geobacillus stearothermophilus)
Experiment: SpyTag-SpyCatcher reaction, SDS-PAGE

## SpyCatcher-H5 hemagglutinin construct
  units of H5 conjugated per nanoparticle (units of H5 per nanoparticle): 17.1

Source: patent publication US20250073334A1
